Experiments:
[1] = system: DQ Gelatin from pig skin, fluorescein conjugate (Invitrogen)
[2] = biological target: DQ Bovine Serum Albumin, fluorescent quenched (UniProt P02769)
[3] = system: DQ collagen, type IV from human placenta, fluorescein conjugate (Invitrogen)
[4] = biological target: DQ collagen, type I from bovine skin, fluorescein conjugate (Invitrogen) (UniProt P02453)

Measured: hydrolysis of FITC-quenched protein (fluorescence increase)

DQ collagen, type I from bovine skin, fluorescein conjugate (Invitrogen), sequence (P02453 162-1217, chain 1 of 2): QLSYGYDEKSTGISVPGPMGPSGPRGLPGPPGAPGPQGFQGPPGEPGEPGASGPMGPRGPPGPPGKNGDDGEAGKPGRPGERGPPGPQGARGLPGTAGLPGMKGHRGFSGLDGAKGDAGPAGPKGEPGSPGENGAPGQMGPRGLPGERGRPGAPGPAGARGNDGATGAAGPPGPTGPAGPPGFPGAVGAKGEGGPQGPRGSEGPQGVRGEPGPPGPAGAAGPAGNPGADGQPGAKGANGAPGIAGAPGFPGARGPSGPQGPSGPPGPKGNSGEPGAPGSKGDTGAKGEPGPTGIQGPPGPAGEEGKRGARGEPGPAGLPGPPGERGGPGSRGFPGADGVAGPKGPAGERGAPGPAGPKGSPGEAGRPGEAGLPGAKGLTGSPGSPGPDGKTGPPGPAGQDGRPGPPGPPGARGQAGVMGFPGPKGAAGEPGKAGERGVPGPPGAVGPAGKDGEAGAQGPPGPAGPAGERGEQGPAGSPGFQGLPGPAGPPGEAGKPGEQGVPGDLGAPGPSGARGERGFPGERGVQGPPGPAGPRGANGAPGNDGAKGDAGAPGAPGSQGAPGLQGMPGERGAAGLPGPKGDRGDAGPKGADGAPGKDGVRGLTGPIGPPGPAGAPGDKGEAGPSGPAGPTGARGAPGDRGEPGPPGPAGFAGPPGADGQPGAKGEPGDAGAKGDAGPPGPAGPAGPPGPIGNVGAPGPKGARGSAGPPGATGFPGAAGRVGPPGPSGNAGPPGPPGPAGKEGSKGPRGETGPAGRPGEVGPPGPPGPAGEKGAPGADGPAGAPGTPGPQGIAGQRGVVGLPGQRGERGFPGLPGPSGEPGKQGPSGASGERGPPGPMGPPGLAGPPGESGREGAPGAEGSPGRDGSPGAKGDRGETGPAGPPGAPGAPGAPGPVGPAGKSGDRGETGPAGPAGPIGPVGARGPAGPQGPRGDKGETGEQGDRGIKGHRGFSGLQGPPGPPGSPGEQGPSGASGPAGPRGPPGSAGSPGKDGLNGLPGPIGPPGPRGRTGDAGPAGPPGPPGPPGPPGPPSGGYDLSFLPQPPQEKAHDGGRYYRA
DQ collagen, type I from bovine skin, fluorescein conjugate (Invitrogen), sequence (P02453 other isoform, or with tags, fused parts or gaps, chain 2 of 2): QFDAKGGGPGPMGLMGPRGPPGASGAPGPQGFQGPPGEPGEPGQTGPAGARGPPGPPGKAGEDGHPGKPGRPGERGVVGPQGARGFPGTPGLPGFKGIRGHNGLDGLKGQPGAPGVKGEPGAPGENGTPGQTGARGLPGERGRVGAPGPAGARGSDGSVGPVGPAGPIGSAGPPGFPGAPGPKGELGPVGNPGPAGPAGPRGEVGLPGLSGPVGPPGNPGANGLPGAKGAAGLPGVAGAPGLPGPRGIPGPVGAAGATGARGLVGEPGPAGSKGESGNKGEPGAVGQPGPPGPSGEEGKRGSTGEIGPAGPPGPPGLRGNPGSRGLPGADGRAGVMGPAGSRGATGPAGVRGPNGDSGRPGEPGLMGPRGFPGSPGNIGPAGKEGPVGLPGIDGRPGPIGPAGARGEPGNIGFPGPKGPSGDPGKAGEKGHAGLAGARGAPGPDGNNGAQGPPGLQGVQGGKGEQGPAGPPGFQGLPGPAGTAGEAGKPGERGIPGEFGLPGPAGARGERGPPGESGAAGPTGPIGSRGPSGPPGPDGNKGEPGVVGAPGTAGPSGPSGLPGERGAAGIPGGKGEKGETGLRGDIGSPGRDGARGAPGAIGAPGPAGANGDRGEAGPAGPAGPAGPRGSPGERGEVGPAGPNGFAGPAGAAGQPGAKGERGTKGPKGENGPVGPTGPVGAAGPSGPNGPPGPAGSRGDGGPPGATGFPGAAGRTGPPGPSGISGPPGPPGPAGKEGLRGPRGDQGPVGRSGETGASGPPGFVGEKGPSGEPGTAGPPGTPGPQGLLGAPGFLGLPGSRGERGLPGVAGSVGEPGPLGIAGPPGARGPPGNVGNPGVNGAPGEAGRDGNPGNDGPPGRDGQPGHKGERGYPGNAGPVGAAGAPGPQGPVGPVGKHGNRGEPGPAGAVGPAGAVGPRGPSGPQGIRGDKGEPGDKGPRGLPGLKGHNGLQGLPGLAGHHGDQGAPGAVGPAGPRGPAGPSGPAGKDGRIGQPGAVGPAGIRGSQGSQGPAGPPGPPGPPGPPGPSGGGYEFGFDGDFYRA
DQ Bovine Serum Albumin, fluorescent quenched, sequence (P02769 25-607): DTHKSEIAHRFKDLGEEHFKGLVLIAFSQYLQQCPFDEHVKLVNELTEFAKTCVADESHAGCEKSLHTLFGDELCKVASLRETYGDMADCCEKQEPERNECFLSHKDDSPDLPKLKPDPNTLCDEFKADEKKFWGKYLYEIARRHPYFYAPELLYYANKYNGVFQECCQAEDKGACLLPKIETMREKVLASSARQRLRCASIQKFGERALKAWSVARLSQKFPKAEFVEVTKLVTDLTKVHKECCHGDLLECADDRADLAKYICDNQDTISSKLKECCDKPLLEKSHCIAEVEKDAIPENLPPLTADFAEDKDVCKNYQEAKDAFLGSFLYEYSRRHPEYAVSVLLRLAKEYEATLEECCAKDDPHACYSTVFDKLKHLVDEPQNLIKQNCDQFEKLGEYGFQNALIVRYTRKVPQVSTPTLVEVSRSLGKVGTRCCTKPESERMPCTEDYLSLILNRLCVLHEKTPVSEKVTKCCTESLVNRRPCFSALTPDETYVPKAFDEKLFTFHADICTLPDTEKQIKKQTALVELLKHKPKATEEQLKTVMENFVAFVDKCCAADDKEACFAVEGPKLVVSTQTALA

His tagged extra cellular domain of Prostate Specific Membrane Antigen (PSMA), purified from S2 cells
no digestion of any of the proteins: all assays above
